Experimental data taken from the Immune Epitope Database (IEDB).

Legend:
[1] = biological target: HLA-C*14:02; assay: IEDB peptide-MHC binding, purified MHC/direct/fluorescence; filed as Kd, often an IC50 or EC50 that approximates it; ≥ and ≤ were set here for values at or beyond the usual limits of such assays; settings: source organism: human gammaherpesvirus 4
[2] = biological target: HLA-A*02:01; assay: IEDB peptide-MHC binding, purified MHC/competitive/fluorescence; ≥ and ≤ were set here for values at or beyond the usual limits of such assays; settings: source organism: Vaccinia virus Copenhagen
[3] = biological target: HLA-B*15:01; assay: as above; settings: source organism: Vaccinia virus Copenhagen
[4] = biological target: HLA-A*01:01; assay: as above; settings: source organism: Vaccinia virus Copenhagen
[5] = biological target: HLA-A*24:02; assay: as above; settings: source organism: Vaccinia virus Copenhagen
[6] = biological target: HLA-A*02:01; assay: IEDB peptide-MHC binding, purified MHC/competitive/fluorescence; filed as Kd, often an IC50 or EC50 that approximates it; ≥ and ≤ were set here for values at or beyond the usual limits of such assays; settings: source organism: Vaccinia virus Copenhagen
[7] = biological target: HLA-A*31:01; assay: as above; settings: source organism: Vaccinia virus Copenhagen
[8] = biological target: HLA-A*68:02; assay: as above; settings: source organism: Vaccinia virus Copenhagen
[9] = biological target: HLA-B*15:17; assay: as above; settings: source organism: Vaccinia virus Copenhagen
[10] = biological target: HLA-B*27:05; assay: as above; settings: source organism: Vaccinia virus Copenhagen
[11] = biological target: HLA-A*26:03; assay: as above; settings: source organism: Vaccinia virus Copenhagen
[12] = biological target: HLA-B*48:01; assay: IEDB peptide-MHC binding, purified MHC/direct/fluorescence; filed as Kd, often an IC50 or EC50 that approximates it; ≥ and ≤ were set here for values at or beyond the usual limits of such assays; settings: source organism: Camelpox virus M-96
[13] = biological target: HLA-A*03:01; assay: as above; settings: source organism: Camelpox virus M-96
[14] = biological target: HLA-B*07:02; assay: as above; settings: source organism: Camelpox virus M-96
[15] = biological target: HLA-B*18:01; assay: as above; settings: source organism: Camelpox virus M-96
[16] = biological target: HLA-B*15:01; assay: as above
[17] = biological target: HLA-A*01:01; assay: as above; settings: source organism: Camelpox virus M-96
[18] = biological target: HLA-B*58:01; assay: as above
[19] = biological target: HLA-B*08:03; assay: as above; settings: source organism: Variola virus
[20] = biological target: HLA-A*26:02; assay: as above; settings: source organism: Variola virus
[21] = biological target: HLA-A*69:01; assay: as above; settings: source organism: Camelpox virus M-96
[22] = biological target: HLA-B*40:01; assay: as above
[23] = biological target: HLA-B*46:01; assay: as above; settings: source organism: Camelpox virus M-96
[24] = biological target: HLA-B*08:01; assay: as above; settings: source organism: Variola virus
[25] = biological target: HLA-A*26:01; assay: as above; settings: source organism: Variola virus
[26] = biological target: HLA-B*57:01; assay: as above; settings: source organism: Camelpox virus M-96
[27] = biological target: HLA-A*11:01; assay: as above; settings: source organism: Camelpox virus M-96
[28] = biological target: HLA-C*15:02; assay: as above; settings: source organism: SARS-CoV1
[29] = source organism: Camelpox virus M-96

Sequence: AASYARYVL
- Kd [1]: 0.491 µM

Sequence: LYQLLEAVY
- IC50 [2]: ≥ 72.8 µM
- IC50 [3]: ≥ 71.9 µM
- IC50 [4]: ≥ 199 µM
- IC50 [5]: 0.0687 µM

Sequence: SLYKYLLLR
- Kd [6]: 0.555 µM
- Kd [7]: 0.00117 µM
- Kd [8]: 3.9 µM
- Kd [9]: ≥ 20 µM
- Kd [10]: 2.46 µM
- Kd [11]: ≥ 20 µM
- Kd [12]: ≥ 20 µM
- Kd [13]: 0.031 µM
- Kd [14]: ≥ 20 µM
- Kd [15]: ≥ 20 µM
- Kd [16, 29]: ≥ 20 µM
- Kd [17]: ≥ 20 µM
- Kd [18, 29]: ≥ 20 µM
- Kd [19]: ≥ 20 µM
- Kd [20]: ≥ 20 µM
- Kd [21]: ≥ 20 µM
- Kd [22, 29]: ≥ 20 µM
- Kd [23]: ≥ 20 µM
- Kd [24]: ≥ 20 µM
- Kd [25]: ≥ 20 µM
- Kd [26]: ≥ 20 µM
- Kd [27]: 0.047 µM

Sequence: LQIPFAMQM
- Kd ([16]; source organism: SARS-CoV1): 0.18 µM
- Kd [28]: 0.11 µM
- Kd ([18]; source organism: SARS-CoV1): 0.986 µM
- Kd ([22]; source organism: SARS-CoV1): 4.04 µM
